A word on the IC50: it is the point on the concentration scale where inhibition reaches its midpoint.

The assay concerns the target purified MHC. Briefly: competition with radiolabeled known MHC binding peptide for purified MHC.
In turn, PYSQPESPYMQPQPF [P3d (modified gluten peptide …)] yielded an IC50 of 1.99 µM.

Molecule LQLQPFDQPRLPWPQ [P1f (modified gluten peptide …)] returned an IC50 of 5.44 µM.

PYPHPWLRGPQPQPF [P3f (modified gluten peptide …)] registered an IC50 of 0.879 µM.

PYPHPRLPYTQPQPF [P3c (modified gluten peptide …)]: the IC50 was 2.99 µM.

LQLQPFWQPKLPGPQ [P1g (modified gluten peptide …)] yielded an IC50 of 11.2 µM.

KLPYPQGRLPGPQPQ [P2g (modified gluten peptide …)]: the IC50 is 3.75 µM.

(Values after patent publication US20210292381A1.)
